Assay results reported in patent KR20230010676A (dated 2023).

Key:
Test in all cases: cell-based or functional assay
[1] = target: SARS-CoV-2 S N439K (SARS-CoV-2, UniProt P0DTC2 14-1273)
[2] = target: SARS-CoV-2 S A520S (SARS-CoV-2, UniProt P0DTC2 14-1273)
[3] = target: SARS-CoV-2 S E484K (SARS-CoV-2, UniProt P0DTC2 14-1273)
[4] = target: SARS-CoV-2 S N501Y (SARS-CoV-2, UniProt P0DTC2 14-1273)
[5] = target: SARS-CoV-2 S P384L (SARS-CoV-2, UniProt P0DTC2 14-1273)
[6] = target: SARS-CoV-2 S S494P (SARS-CoV-2, UniProt P0DTC2 14-1273)
[7] = target: SARS-CoV-2 S A522S (SARS-CoV-2, UniProt P0DTC2 14-1273)
[8] = target: SARS-CoV-2 S Y453F (SARS-CoV-2, UniProt P0DTC2 14-1273)
[9] = target: SARS-CoV-2 S S477N (SARS-CoV-2, UniProt P0DTC2 14-1273)
[10] = target: SARS-CoV-2 S L452R (SARS-CoV-2, UniProt P0DTC2 14-1273)
[11] = target: SARS-CoV-2 S N501T (SARS-CoV-2, UniProt P0DTC2 14-1273)
[12] = target: SARS-CoV-2 S K417N (SARS-CoV-2, UniProt P0DTC2 14-1273)
[13] = target: SARS-CoV-2 S T478K (SARS-CoV-2, UniProt P0DTC2 14-1273)

Measured: S2E12의 중화 감소 (배)

B1: S2E12 (antibody, V domains shown)
VH: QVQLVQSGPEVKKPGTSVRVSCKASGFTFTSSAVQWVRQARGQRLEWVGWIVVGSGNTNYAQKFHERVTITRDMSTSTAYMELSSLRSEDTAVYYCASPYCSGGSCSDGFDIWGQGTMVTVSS
VL: DIVLTQTPGTLSLSPGERATLSCRASQSVSSSYLAWYQQKPGQAPRLLIYGASSRATGIPDRFSGSGSGTDFTLTISRLEPEDFAVYYCQQYVGLTGWTFGQGTKVEIK
notes: also called S2E12 WT; S2E12 wt
< 3 배: [1] | [2] | [3] | [4] | [5] | [6] | [7] | [8] | [9] | [10] | [11] | [12] | [13]
